The series is described as follows: soluble on expression in E. coli; label from the status in PepcDB or PDB records.
Consider “MGSSHHHHHHSSGRENLYFQGHMASQLTDAFARKFYYLRLSITDVCNFRCTYCLPDGYKPSGVTNKGFLTVDEIRRVTRAFARLGTEKVRLTGGEPSLRRDFTDIIAAVRENDAIRQIAVTTNGYRLERDVASWRDAGLTGINVSVDSLDARQFHAITGQDKFNQVMAGIDAAFEAGFEKVKVNTVLMRDVNHHQLDTFLNWIQHRPIQLRFIELMETGEGSELFRKHHISGQVLRDELLRRGWIHQLRQRSDGPAQVFCHPDYAGEIGLIMPYEKDFCATCNRLRVSSIGKLHLCLFGEGGVNLRDLLEDDTQQQALEARISAALREKKQTHFLHQNNTGITQNLSYIGG”, for which the “soluble on expression in E. coli” value is given as “soluble”.
With “MQFQRARSDKQKNIRMSEIVNATINLYESLQYDKITLALIAKQLSFSRANLYKYVSTKEEIFLLIISGDIENWSKEVVKFFDKYDALSAEEFCKLWSELLYRHKRIIELFCILNTIIARNVSAEKLAAFKKQIHKDFTRTKKVVKRFFPFMSKEQLKFFIEYQMKYAVGVYPATIINDVQKKASELSGIPSNVKDFESSFSKFLMVILNGIEITI” the entry was “not soluble”; with “MTIYTLSHGSLKLDVSDQGGVIEGFWRDTTPLLRPGKKSGVATDASCFPLVPFANRVSGNRFVWQGREYQLQPNVEWDAHYLHGDGWLGEWQCVSHSDDSLCLVYEHRSGVYHYRVSQAFHLTADTLTVTLSVTNQGAETLPFGTGWHPYFPLSPQTRIQAQASGYWLEREQWLAGEFCEQLPQELDFNQPAPLPRQWVNNGFAGWNGQARIEQPQEGYAIIMETTPPAPCYFIFVSDPAFDKGYAFDFFCLEPMSHAPDDHHRPEGGDLIALAPGESTTSEMSLRVEWLLEHHHHHH”, “soluble”; with “MGSDKIHHHHHHVQYLDKLVSGLAVELHVPEGDYEGNYKTHVDEIGKTRLSVYAPHYQGMIIPLQEGTLVEVTFWDDVASYSFMSSVLQRVATPIPMFVLKMPDSIRRVQRRNYVRVSASFPITYQVVEREGLGDLLKGNMLDLSGGGMRFQAKVKLDKGSILYANLELPCGIIGTPGRVCRVEPIEDTKYFSVSVDFYQISERDRDRIIRCVFDIQRDLRKKGLI”, “not soluble”.
With “MSEDIGVTRFREYLRVNTEQPKPDYEACRDFLFKYADELGIERRSVETAPGTYFVIMTIPGSKPDLPSIMLYSHTDVVPTFREYWTHDPYSAFKDEDGNIFARGAQDMKCVGVQYMEALRNWFAKGVKQWTRTIHIVWGPDEEIGHINGMKGFAVTEEFKKLNIDFALDEGIATEDDVYKIFYAERIPWWVKVTLPGHPGHGSKFIEKTAIEKLHKLIASVDEFRNEQKSLLAEHPEWTVGDVTTSNITIINGGVQVNVVPEKFEAYIDIRVTPLQDLDAVLARVDQWAKEAGEGVTYEFMQFSNFKLISPNTREDPFWAAIDDALQKEGCKYKKEIFIGATDSRFVRAQGIRAIGFSPIINTPSLLHDHNEFLNEKTFLRGVEIYETLINKLANVN” the entry was “not soluble”.
For “SDPVDYQAEDATIVQGAVESNHAGYTGTGFVNYDNVAGSSVEWTVTVPSAGTYDVVVRYANGTTTSRPLDFSVNGSISASGVAFGSTGTWPAWTTKTVRVTLAAGVNKIKAVATTANGGPNVDKITL”, the “soluble on expression in E. coli” value is listed as “soluble”.
Then “SLSIELDLQLAVENEHGLPSEAEFALWLTRTITPFQAQAEVTVRIVDEAESHALNLNYRGKDKPTNVLSFPFEAPSGMEMDLLGDLVICRQVVEREAIEQNKPLQAHWAHMVVHGSLHLLGYDHIEDDEAEEMESLETEIMQEMGFTDPYLAEKE”, with “not soluble”.
Consider “MEFDKGQTLGNFIDRIRLNGYNTECVFNQSICQDIKNHYKQQCCAMCGVRGNSENTQIEVDHKDGRKDDSRVSDLSTQAFDDFQALCKACNDKKRQICKKCKETGYRFDARKIPGNHYSFYEGEAEYDGCVGCYQYDPIQYRKTCNDRIYNEGYQKGYSDGYQIGYHQKTTL”, for which the “soluble on expression in E. coli” value is given as “not soluble”.
With “GSEDFTFDGTKRLSVNYVKGILQPTDTCDIWDKIWNFQAKPDDLLISTYPKAGTTWTQEIVELIQNEGDVEKSKRAPTHQRFPFLEMKIPSLGSGLEQAHAMPSPRILKTHLPFHLLPPSLLEKNCKIIYVARNPKDNMVSYYHFQRMNKALPAPGTWEEYFETFLAGKVCWGSWHEHVKGWWEAKDKHRILYLFYEDMKKNPKHEIQKLAEFIGKKLDDKVLDKIVHYTSFDVMKQNPMANYSSIPAEIMDHSISPFMRKGAVGDWKKHFTVAQNERFDEDYKKKMTDTRLTFHFQF” the entry was “soluble”.
With “MLKKRFYILLFFCLLLGGNVNSSTVDKGDNNAPFENKRTETDYLPIADPFVMLYNNKYYAYGTGGTVNEGFACFSSDDLKNWKRERQALSADDSYGKWGFWAPEVYYIQSKKKFYMFYSVEEHICVATSDSPVGPFRQESKQPIWEEKSIDTSLFIDDDGTPYLYFVRFTDGNVIWVAQMTDDLMKIKKETLSECIKAEEPWELLQAKVAEGPSVLKKKGMYYLIYSANHYQNKGYGVGYATSKSPMGPWTKYDKNPLLQGDESTGLVGTGHGAPFQCKDGSWKYIFHAHWNKEKIHPRTSYFKDFTISKQGVVSITGKVIKPKVIK” the entry was “not soluble”; with “RVASNLDNKARVTELFKSAYSILTEVEKMAVEGKMPEEEAKALATRLLRNNIYKDNEYVYVADENMMFIAAPLDPQLHGTSFHDFKDGSGNSVGQ”, “not soluble”.
As for “VLLAIDVRNTHTVVGLLSGMKEHAKVVQQWRIRTESEVTADELALTIDGLIGEDSERLTGTAALSTVPSVLHEVRIMLDQYWPSVPHVLIEPGVRTGIPLLVDNPKEVGADRIVNCLAAYDRFRKAAIVVDFGSSICVDVVSAKGEFLGGAIAPGVQVSSDAAAARSAALRRVELARPRSVVGKNTVECMQAGAVFGFAGLVDGLVGRIREDVSGFSVDHDVAIVATGHTAPLLLPELHTVDHYDQHLTLQGLRLVFERNLEVQRGRLKTAR”, the “soluble on expression in E. coli” value is “soluble”.
“MMKFSVIVPTYNSEKYITELLNSLAKQDFPKTEFEVVVVDDCSTDQTLQIVEKYRNKLNLKVSQLETNSGGPGKPRNVALKQAEGEFVLFVDSDDYINKETLKDAAAFIDEHHSDVLLIKMKGVNGRGVPQSMFKETAPEVTLLNSRIIYTLSPTKIYRTALLKDNDIYFPEELKSAEDQLFTMKAYLNANRISVLSDKAYYYATKREGEHMSSAYVSPEDFYEVMRLIAVEILNADLEEAHKDQILAEFLNRHFSFSRTNGFSLKVKLEEQPQWINALGDFIQAVPERVDALVMSKLRPLLHYARAKDIDNYRTVEESYRQGQYYRFDIVDGKLNIQFNEGEPYFEGIDIAKPKVKMTAFKFDNHKIVTELTLNEFMIGEGHYDVRLKLHSRNKKHTMYVPLSVNANKQYRFNIMLEDIKAYLPKEKIWDVFLEVQIGTEVFEVRVGNQRNKYAYTAETSALIHLNNDFYRLTPYFTKDFNNISLYFTAITLTDSISMKLKGKNKIILTGLDRGYVFEEGMASVVLKDDMIMGMLSQTSENEVEILLSKDIKKRDFKNIVKLNTAHMTYSLKLEHHHHHH”: the “soluble on expression in E. coli” value is “soluble”.
Turning to “MGSDKIHHHHHHMPFDDIQCSPLLVRDGTDNIMQVLSDTDKPTASAQRDMPQEFLPPRCTFSAEDWRILARQWYPVARSVDVKSSPVAVTLLDLELVTYRTPAGVHVARDLCPHRGVPLSMGCVEGDELVCAYHGLRYAADGQCRKIPAQPELKPSAKFRLTVFPAVERYGLVWTCLNPQGGEANLPPMPSWGDPLCQSILPPFVDIAGSAGRQVEGFVDVAHFAFVHHDAFADRNRPEVPMYQTEFTDFGLRTEYWSNVSNYPKALQHLAPDDFSWLRVYEIYPPFCARLTVHFPNEGRLNILNAASPVSARKTRLFVPITRNFDTTGSLDDVYAFNAQIFAEDQAIVERQRPEDLPLDMQAEAHFAADRTSVGYRRLLREMGLTMAYAG”, the “soluble on expression in E. coli” value is reported as “not soluble”.
With “MGSDKIHHHHHHMSTPSPHCALCGIALGERLCRDSEGKSPAFCPTQNFSEIKEENSALYEGETKRFAKNAAIQEASCYEGREQGYAHLRPAKPRIEEIIEFAQKMGYQKLGLAFCMGLRNEAKAVELLLQKRGFEVVSVICKVGNSDKSTLGIDEEDKLIPHTPEAMCDPLLQARLLNESQTDFNIMLGLCVGHDSLFLKASEALCTVFAVKDRLLGHNPLAAIYTLESYYRSLKEG” the entry was “not soluble”; with “AVNGKGMNPDYKAYLMAPLKKIPEVTNWETFENDLRWAKQNGFYAITVDFWWGDMEKNGDQQFDFSYAQRFAQSVKNAGMKMIPIISTHQCGGNVGDDCNVPIPSWVWNQKSDDSLYFKSETGTVNKETLNPLASDVIRKEYGELYTAFAAAMKPYKDVIAKIFLSGGPAGELRYPSYTTSDGTGYPSRGKFQAYTEFAKSKFRLWVLNKYGSLNEVNKAWGTKLISELAILPPSDGEQFLMNGYLSMYGKDYLEWYQGILENHTKLIGELAHNAFDTTFQVPIGAKIAGVHWQYNNPTIPHGAEKPAGYNDYSHLLDAFKSAKLDVTFTCLEMTDKGSYPEYSMPKTLVQNIATLANEKGIVLNGENALSIGNEEEYKRVAEMAFNYNFAGFTLLRYQDVMYNNSLMGKFKDLLGVTPVMQTIVVKNVPTTIGDTVYITGNRAELGSWDTKQYPIQLYYDSHSNDWRGNVVLPAERNIEFKAFIKSKDGTVKSWQTIQQSWNPVPLKTTSHTSSW”, “soluble”.
As for “MGSDKIHHHHHHMSSEHQLLVGLLKKLKADALVLPTLPEVAMRVQEVVSRPDSSPKQVAEIIGQDAAISARMIKVANSAMYSRGIKAENINAAVTRIGLTQIKAIATSVAMEQLFISTNEMVWEVMDEVWRASIEVTSAACALLLKYSKTHKGCGLNYDTLTLASLVHNIGALPVLTEAEANPHLFTSIEQLRALVRKMQGPLGRAVLKSWDFSPEVTEVVERWADLPYLPEQVTYLDFVRAAAFYTGELRAGHDLEERLDVFLQRGLPVSPEYLGSDEFLDNYHSIKLSYE”, the “soluble on expression in E. coli” value is recorded as “not soluble”.
Take “MSLVTRSVLKFGGSSVSDFTKIKRIAEMLKERVNQDEQLIVVVSAMGNTTDQLMTNVSTLTKAPKQQELALLLTTGEQQTVSYLSMVLNDIGVNAKAMTGYQAGIKTIGHHLKSKIAQINPQTFEQAFQENDILVVAGFQGINEHQELTTLGRGGSDTTAVALAVSNQIPCEIYTDVDGVYATDPRLLPKAKRLDIVSYEEMMEMSALGAGVLETRSVELAKNYNIPLYLGKTLSNVKGTWIMSNEEILEKKAVTGVALDKHMMHVTISYPLPDNQLLTQLFTELEEGAVNVDMISQIVNLDGLQLSFTIKDSDFHQISMILETLKNQYEALAYKINEHYVKISLIGSGMRDMSGVASKAFLTLIENNIPFYQTTTSEISISYVIDDFNGQQAVEKLYDAFNIEGHHHHHH”: the “soluble on expression in E. coli” value is recorded as “soluble”.
With “MVRMALEGMSKRKRKRSVQEGENPDDGVRGSPPEDYRLGQVASSLFRGEHHSRGGTGRLASLFSSLEPQIQPVYVPVPKQTIKKTKRNEEEESTSQIERPLSQEPAKKVKAKKKHTNAEKKLADRESALASADLEEEIHQKQGQKRKNSQPGVKVADRKILDDTEDTVVSQRKKIQINQEEERLKNERTVFVGNLPVTCNKKKLKSFFKEYGQIESVRFRSLVCFIPPLEHHHHHH” the entry was “not soluble”; with “MGSDKIHHHHHHMVGIVLASHGGFADGIAESAQMLFGPQDNFAHVILKPSEGPEDIKGKMNEAIASFADQEEVLFLVDLWGGTPFNQANGLLDGHDKWAIVSGLNLPMVVEALTQRMINDKATAQDIATAIIKPAKDGIKTKPESLMPAEEKAAAPAAAAGAPKEAIPEGTVLGDGHIKIVGARIDSRLLHGQVVTGWIPSLHPDRVIVVSDKIAKDDLRKSMIREAAPAGTVAHTVPLEKMKEIYEDPRFGTTHAFLLFENPEDALQTIKNGVDIKTLNVGSMSYSKGKVNANNVLSMDQTDVDTFRELEKMGIKFDVRKVPSDNPENMDSILKKAQSLLDEQSSSEKRS”, “not soluble”.

The values are drawn from the DeepSol protein solubility set.
